Source: the supplement of paper PMC9170038

Test system: MS2 coat protein
Assay: apparent KD of MS2 coat protein; designed switch direction (-1 OFF switch, 1 ON switch): -1; higher = weaker reporter binding
Method in brief: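 Designed RNA switches sharing common flanks were transcribed on Illumina chips by stalled E. coli RNA polymerase. They were titrated with SNAP-549-labelled MS2 coat protein, from 0.7 or 1.5 nM doubling to 3 µM, in Tris-HCl pH 7.5 buffer with KCl, MgCl2, BSA, DTT, tRNA and Tween-20. Titrations ran without input, with 200 uM small-molecule ligand, or with an oligonucleotide input. The apparent KD of each design is the median over its clusters, after curve-fitting of normalised cluster fluorescence.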

[1] = input ligand: microRNA oligo, concentration not stated
[2] = Eterna round: R95, input ligand: microRNA oligo, concentration not stated
[3] = Eterna round: R95, input ligand: FMN 200 uM
[4] = Eterna round: R95, input ligand: none

## AAACCGCAAGGAUAUACUUGCGGUGGUGUUCGAAACUUUCUACUUGAGGAUCACCCAAGUAGAAGGUGCGGUAA [jl-ex2.4.71 ViennaUCT mod] (Eterna round: R97, puzzle: Exclusion 2)
Input ligand: FMN 200 uM
  apparent KD of MS2 coat protein: 0.0132 µM
Input ligand: none
  apparent KD of MS2 coat protein: 0.0129 µM

## UACAUGAGGAUCACCCAUGUUUUGUCGUGUAUGGUAUUUAUCUAGGAUAUCAUUUUAUUUAGCUAUGAGAAGGAGAAUAUUAAU [JMF's solution 94] (Eterna round: R96, puzzle: Exclusion NG 3)
Input ligand: FMN 200 uM
  apparent KD of MS2 coat protein: 0.0323 µM
[1]
  apparent KD of MS2 coat protein: 0.0205 µM
Input ligand: none
  apparent KD of MS2 coat protein: 0.0312 µM

## CAGUACUGAGGAUAUACAUGAGGAUCACCCAUGUGUUCCAGCUAGGAAACUAGGAAAAGUAGAAGGCAGUACUG [salish99_ex3_r3_069] (puzzle: Exclusion 3)
[2]
  apparent KD of MS2 coat protein: 0.0231 µM

## AGCAAGCUUUAAAGAUCCUACAUGAGGAUCACCCAUGUGCUCGUCUUAUAACGUACUGUGACGAAAGUCACGGUACG [JL TOV1 3.33] (Eterna round: R97, puzzle: Sensor, turn-off variant 1)
Input ligand: FMN 200 uM
  apparent KD of MS2 coat protein: 0.357 µM
Input ligand: none
  apparent KD of MS2 coat protein: 0.603 µM

## AGUACUAACACGAAAGUGUUAGUACAAUAAGCUUGUGUAACAUGAGGAUCACCCAUGUCCUCAUAAGCUCGUCUUAU [salish99_TOv2_r3_043] (puzzle: Sensor v3, turn-off variant 2)
[3]
  apparent KD of MS2 coat protein: 0.0506 µM
[2]
  apparent KD of MS2 coat protein: 0.0383 µM
[4]
  apparent KD of MS2 coat protein: 0.0516 µM

## UGAACAUGAGGAUCACCCAUGUGGUUAGGUGAAAUCCUGCUGGAGGAUAUAAGUCCUGGUGCCGCUUAGAAGGCCAGCUGACAG [Eternabot solution 48] (Eterna round: R96, puzzle: Exclusion NG 3)
Input ligand: FMN 200 uM
  apparent KD of MS2 coat protein: 0.072 µM
[1]
  apparent KD of MS2 coat protein: 0.0567 µM
Input ligand: none
  apparent KD of MS2 coat protein: 0.0825 µM

## GGCUAGUCAGGAUAUACGAACAUGUCAAAAGACGUGAAGGGACAUGAGGAUCACCCAUGUAGAAGGGACUAGCC [salish99_ex2_r3_004] (Eterna round: R96, puzzle: Exclusion 2)
Input ligand: FMN 200 uM
  apparent KD of MS2 coat protein: 0.181 µM
[1]
  apparent KD of MS2 coat protein: 0.0219 µM
Input ligand: none
  apparent KD of MS2 coat protein: 0.0275 µM

## GUGCCGCGAGGAUAUACAGACGGGUCCAUUACGUGUCUCGGACUUGAGGAUCACCCAAGUAGAAGGCGUUUCAG [salish99_ex2_r4_624] (Eterna round: R97, puzzle: Exclusion 2)
Input ligand: FMN 200 uM
  apparent KD of MS2 coat protein: 0.0207 µM
Input ligand: none
  apparent KD of MS2 coat protein: 0.0384 µM

## UUUUAACAUGAGGAUCACCCAUGUGAGGAUAUCGAAAUUUAUAUUUAUAUUAAUAAAUCGAGAAGGCACAUUUU [JMF 76] (puzzle: Exclusion 1)
[2]
  apparent KD of MS2 coat protein: 0.119 µM

## AUGAGCAGACGGAGAUCCAACAUGAGGAUCACCCAUGUCUCAUAAGCUUUUUGUUCAUCUUAUUGUACCUUGGUGCA [Mat - Sensor v3 - turn-off var 1 - JL Mod - D25] (puzzle: Sensor v3, turn-off variant 1)
[3]
  apparent KD of MS2 coat protein: 0.0572 µM
[2]
  apparent KD of MS2 coat protein: 0.0305 µM
[4]
  apparent KD of MS2 coat protein: 0.0555 µM

## ACAGUACUGCAAGGAUAUCGUUCUAGUUUAUUACGAGAAGGUGCUUUAGUUAUUUCUUUGGGUUGACAUGAGGAUCACCCAUGU [JR_ExcNG1_Sub056] (Eterna round: R96, puzzle: Exclusion NG 1)
Input ligand: FMN 200 uM
  apparent KD of MS2 coat protein: 0.156 µM
[1]
  apparent KD of MS2 coat protein: 0.143 µM
Input ligand: none
  apparent KD of MS2 coat protein: 0.144 µM

## CACGAAUUGUGAGGAUAUGUGCGACAAAGUUGCACAGAAGGCACAUGAGGAUCACCCAUGUAAGCUAGGUCGAAAGACCUAGCG [Omei Exc(NG)1 Av1] (Eterna round: R96, puzzle: Exclusion NG 1)
Input ligand: FMN 200 uM
  apparent KD of MS2 coat protein: 0.215 µM
[1]
  apparent KD of MS2 coat protein: 0.0227 µM
Input ligand: none
  apparent KD of MS2 coat protein: 0.0564 µM

## AUAAGUAUAUAGGAUAUCUAGCUGGUAACAGCUAGAGAAGGAUGUACAUGAGGAUCACCCAUGUAAAUCUCAAU [Ex6/12-A2] (Eterna round: R97, puzzle: Exclusion 6)
Input ligand: FMN 200 uM
  apparent KD of MS2 coat protein: 0.0157 µM
Input ligand: none
  apparent KD of MS2 coat protein: 0.0161 µM

## GGGUGCAGGCUGAGGUCCUACAUGAGGAUCACCCAUGUGGUCCGGUGGCGUGGGUCGCCGGACUUGGCUCGUCUUGU [salish99_S_TOV1_R5_013] (Eterna round: R97, puzzle: Sensor, turn-off variant 1)
Input ligand: FMN 200 uM
  apparent KD of MS2 coat protein: 0.0392 µM
Input ligand: none
  apparent KD of MS2 coat protein: 0.0458 µM

## AAGUCGAGCGUGAGGAUAUUGACCGGACGACCCAUCGAGAAGGCACAUGAGGAUCACCCAUGUGAUUCAGCUCA [Brourd's EX4 #52] (Eterna round: R97, puzzle: Brourd's mod of Exclusion 4)
Input ligand: FMN 200 uM
  apparent KD of MS2 coat protein: 0.0232 µM
Input ligand: none
  apparent KD of MS2 coat protein: 0.0155 µM

## AAAUUGUGAGGAUAUUCGUAGUACUCGGAGACGAGUAUUACGGAGAAGGCACAUGAGGAUCACCCAUGUUCCUU [Mat - Exclusion 4 - JL Mod - D20] (Eterna round: R97, puzzle: Exclusion 4)
Input ligand: FMN 200 uM
  apparent KD of MS2 coat protein: 0.0883 µM
Input ligand: none
  apparent KD of MS2 coat protein: 0.0163 µM

## AAGUGUCCUAAGGAUAUCGAAGCUAUCGGCUGCCGAGAAGGUAGGACAUGAGGAUCACCCAUGUACCGUGAGCC [Reedor] (puzzle: Exclusion 6)
[2]
  apparent KD of MS2 coat protein: 0.0646 µM

## GAGAGAGACAUAGGAUAUUCACCCACACAUGAGGAAGAAGGAUGUAGACAUGAGGAUCACCCAUGUGGAUCACCCAUGUUUGUG [All by luck] (Eterna round: R96, puzzle: Exclusion NG 1)
Input ligand: FMN 200 uM
  apparent KD of MS2 coat protein: 0.022 µM
[1]
  apparent KD of MS2 coat protein: 0.0121 µM
Input ligand: none
  apparent KD of MS2 coat protein: 0.0247 µM

## CACCGUUACUGAGGAUAUGGCACAUGAGGAUCACCCAUGUAAUAAAUGAGAAUUUCGGAUGUAUUCCAGAAGGCAGUAACCGGC [Ostricism 69 - Jieux - Exclusion NG 2] (Eterna round: R96, puzzle: Exclusion NG 2)
Input ligand: FMN 200 uM
  apparent KD of MS2 coat protein: 0.03 µM
[1]
  apparent KD of MS2 coat protein: 0.0233 µM
Input ligand: none
  apparent KD of MS2 coat protein: 0.0271 µM

## UUGUUAUAUGAAGGAUAUACUUAACAUGAGGAUCACCCAUGUGGUGUUGUGAGUGAGUGAGUUUAGUAGAAGGUCAAGUAUUUU [JMF's solution 52] (Eterna round: R96, puzzle: Exclusion NG 2)
Input ligand: FMN 200 uM
  apparent KD of MS2 coat protein: 0.509 µM
[1]
  apparent KD of MS2 coat protein: 0.368 µM
Input ligand: none
  apparent KD of MS2 coat protein: 0.377 µM

## AACCGUCGUCAGGAUAUUUGCCAGGAUUCUAGCGAAGAAGGGACGACAUGAGGAUCACCCAUGUUGGCCACUCG [EX6 B.26] (Eterna round: R97, puzzle: Exclusion 6)
Input ligand: FMN 200 uM
  apparent KD of MS2 coat protein: 0.188 µM
Input ligand: none
  apparent KD of MS2 coat protein: 0.0369 µM

## CAGUACUACAAGCUUCGGGACAUGAGGAUCACCCAUGUUCGUCUUAUUGAUCUAGGUACGCUGACGUACCUAGAUCU [JL-sv1-2.13 Brourd mod] (puzzle: Sensor v3, turn-off variant 1)
[3]
  apparent KD of MS2 coat protein: 0.0186 µM
[2]
  apparent KD of MS2 coat protein: 0.0324 µM
[4]
  apparent KD of MS2 coat protein: 0.0161 µM

## CUCGGACAUGAGGAUCACCCAUGUGAGGAUAUGAUGCGAUCGUCGAAAGACGAUAGCAUCAGAAGGCACAAAUG [Fiskers Ex 1 - 25] (puzzle: Exclusion 1)
[2]
  apparent KD of MS2 coat protein: 0.073 µM

## GAUUGACAUGAGGAUCACCCAUGUGAGGAUAUCGGCUGGACCGUGUUGGCUUCCGUCGCGAGAAGGCGCAUAGG [Exclusion 1 V42] (puzzle: Exclusion 1)
[3]
  apparent KD of MS2 coat protein: 0.061 µM
[2]
  apparent KD of MS2 coat protein: 0.0435 µM
[4]
  apparent KD of MS2 coat protein: 0.0464 µM

## AUGUACCGGUGAGGAUAUUUUUAAUAGAGCUUUAUGAUAUACAUGAGGAUCACCCAUGUUACGUUAAAGAAGGCAUCGGAUUAA [Mat - Exclusion NG 2 - Mod of JL - D96] (Eterna round: R96, puzzle: Exclusion NG 2)
[1]
  apparent KD of MS2 coat protein: 0.014 µM
